Results taken from patent US20190382474A1 (SURFACE ONCOLOGY, published 2019).
Numbering of substitutions follows the chain as printed.

Columns and labels:
recombinant mouse IL-27 = target: T1, recombinant mouse IL-27 (mouse, UniProt O35228 19-228; Q8K3I6 29-234, limits assumed); test: column 'Affinity mIL-27 (M)'; method not given
T1 construct: also called rodent recombinant IL-27
T1 sequence (looked up) 1: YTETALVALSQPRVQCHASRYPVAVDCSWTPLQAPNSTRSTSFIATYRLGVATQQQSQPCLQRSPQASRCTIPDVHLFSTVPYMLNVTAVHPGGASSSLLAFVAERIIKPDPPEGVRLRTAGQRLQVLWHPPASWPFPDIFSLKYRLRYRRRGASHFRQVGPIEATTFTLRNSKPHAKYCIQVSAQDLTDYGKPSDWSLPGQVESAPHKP
T1 sequence (looked up) 2: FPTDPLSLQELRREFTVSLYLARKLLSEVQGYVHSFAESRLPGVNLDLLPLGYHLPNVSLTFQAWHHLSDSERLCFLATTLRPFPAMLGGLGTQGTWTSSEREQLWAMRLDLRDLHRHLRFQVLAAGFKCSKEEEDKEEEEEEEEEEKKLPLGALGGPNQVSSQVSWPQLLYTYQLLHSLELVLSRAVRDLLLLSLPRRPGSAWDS

recombinant human IL-27 [1] = target: T2, recombinant human IL-27 (human, UniProt Q14213 21-229; Q8NEV9 29-243); test: cell-based or functional assay
T2 sequence 1: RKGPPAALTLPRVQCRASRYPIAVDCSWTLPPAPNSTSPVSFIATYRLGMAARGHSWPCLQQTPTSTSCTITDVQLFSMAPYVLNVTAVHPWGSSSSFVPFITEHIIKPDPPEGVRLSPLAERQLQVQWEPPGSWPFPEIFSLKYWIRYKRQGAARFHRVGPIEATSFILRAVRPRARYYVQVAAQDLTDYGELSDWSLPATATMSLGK
T2 sequence 2: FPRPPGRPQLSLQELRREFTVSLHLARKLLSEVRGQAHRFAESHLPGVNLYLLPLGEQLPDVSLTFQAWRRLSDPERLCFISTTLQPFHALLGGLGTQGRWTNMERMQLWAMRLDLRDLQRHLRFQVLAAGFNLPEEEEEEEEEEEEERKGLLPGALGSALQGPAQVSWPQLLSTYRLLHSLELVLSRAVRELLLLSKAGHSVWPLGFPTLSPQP

recombinant human IL-27 [2] = target: T2, recombinant human IL-27; test: column 'Affinity hIL-27 (M)', property (i); method not given, paragraph 885 names SPR (BIACORE 2000)
recombinant human IL-27 [3] = target: T2, recombinant human IL-27; test: SPR (BIACORE 2000) as the paragraph says; values in FIG. 9
recombinant human IL-27 [4] = target: T2, recombinant human IL-27; test: SPR single cycle kinetics, 1:1 model
Description: The antibodies were further characterized by surface plasmon resonance (SPR). Kinetic experiments were performed on a Biacore T200 (GE Healthcare, Uppsala, Sweden). All experiments were run at 25° C. with HBS-P+ running buffer (pH 7.4) (GE Healthcare, Little Chalfont, UK) using hIL-27 (R&D Systems, Abingdon, UK). Human IL-27 (hIL-27) antigen was captured on a CM5 chip to ˜16 RU. Immobilization was carried out at a protein concentration of 1 μg/mL in 10 mM acetate buffer pH 5.0. A three point, three-fold dilution range from 3.3 nM to 30 nM of antibody diluted in HBS-P+ buffer without regeneration between each concentration was used. The association phase for the three injections of increasing concentrations of antibody was monitored for 75 seconds each time and a single dissociation phase was measured for 250 seconds following the last injection of antibody. Regeneration of the hIL-27 surface was conducted using a single injection of 2M MgCl₂ for 120 s. Multiple repeats (n=4) of the chimeric antibody were performed throughout the assay to check the stability of the surface and analyte over the kinetic cycles.

recombinant human IL-27 [5] = target: T2, recombinant human IL-27; test: SPR (Biacore T200), hIL-27 on CM5 chip, single cycle kinetics

B1: SRF381 (antibody, V domains shown)
VH: EVQLVESGGGLVKPGGSLRLSCAASGFTFRSYGMNWVRQAPGKGLEWVSSISSSSSYIYYADSVKGRFTISRDNAKNSLYLQMNSLRAEDTAVYYCARDGGRTSYTATAHNWFDPWGQGTLVTVSS
VL: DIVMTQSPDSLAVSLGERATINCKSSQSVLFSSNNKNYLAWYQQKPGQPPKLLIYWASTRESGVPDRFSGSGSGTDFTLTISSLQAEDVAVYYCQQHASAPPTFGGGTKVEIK
notes: also called SRF381-A; SRF381-B
**Q.** How did the Kd (recombinant mouse IL-27) turn out when B1 was run?
**A.** 0.456 nM

**Q.** What about the “IC50 of inhibition of phosphorylation of STAT1 in HUT-78 cells” value (recombinant human IL-27 [1]) of the same binder?
**A.** 80 ng/mL

**Q.** And the “IC50 of inhibition of phosphorylation of STAT1 in U937 cells” value (recombinant human IL-27 [1])?
**A.** 81 ng/mL

**Q.** What about the “IC50 of inhibition of phosphorylation of STAT1 in pooled human PBMCs” value (recombinant human IL-27 [1]) of the same binder?
**A.** 140 ng/mL

**Q.** What about the Kd (recombinant human IL-27 [2]) of the same binder?
**A.** 0.0028 nM

B2: SRF405 (antibody, V domains shown)
VH: QVQLVQSGAEVKKPGSSVKVSCKASGGTFVGYAISWVRQAPGQGLEWMGGIIPIFGIANYAQKFQGRVTITADESTSTAYMELSSLRSEDTAVYYCARSYYSSRWHYYYYMDVWGKGTTVTVSS
VL: DIQMTQSPSSVSASVGDRVTITCRASQGISSWLAWYQQKPGKAPKLLIYAASNLQSGVPSRFSGSGSGTDFTLTISSLQPEDFATYYCQQADDLPLTFGGGTKVEIK
notes: also called SRF405-A; SRF405-B
**Q.** B2 was tested. Which Kd (recombinant human IL-27 [3]) did it give?
**A.** ≤ 15 nM

**Q.** What about the Kd (recombinant mouse IL-27) of the same binder?
**A.** 5.02 nM

**Q.** What about the Kd (recombinant human IL-27 [2]) of the same binder?
**A.** 0.1 nM

B3: SRF411 (antibody, V domains shown)
VH: B2 VH with V30E, G31S, A33T, I52A, I57T, N59H
VL: B2 VL
notes: also called SRF411-A; SRF411-B
**Q.** B3 was tested. Which Kd (recombinant human IL-27 [3]) did it give?
**A.** ≤ 15 nM

**Q.** What about the Kd (recombinant mouse IL-27) of the same binder?
**A.** 0.546 nM

**Q.** And the Kd (recombinant human IL-27 [2])?
**A.** 0.43 nM

B4: SRF535 (antibody, V domains shown)
VH: EVQLVESGGGLVQPGGSLRLSCAASGFTFSSYGMSWVRQAPGKGLEWVANIKQDGSEKYYVDSVKGRFTISRDNAKNSLYLQMNSLRAEDTAVYYCARDAPWDIYDYYMDVWGKGTTVTVSS
VL: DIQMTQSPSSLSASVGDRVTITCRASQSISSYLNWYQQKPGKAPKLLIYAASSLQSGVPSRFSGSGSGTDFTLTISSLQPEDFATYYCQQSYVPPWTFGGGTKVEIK
notes: also called SRF535-A; SRF535-B
**Q.** How did the Kd (recombinant human IL-27 [3]) turn out when B4 was run?
**A.** ≤ 15 nM

**Q.** Does B4 bind (recombinant mouse IL-27)?
**A.** no binding

**Q.** And the Kd (recombinant human IL-27 [2])?
**A.** 11.5 nM

B5: SRF538 (antibody, V domains shown)
VH: QVQLVESGGGVVQPGRSLRLSCAASGFTFSSYGMHWVRQAPGKGLEWVAVIWYDGSNKYYADSVKGRFTISRDNSKNTLYLQMNSLRAEDTAVYYCARGAPEYVDVWGQGTMVTVSS
VL: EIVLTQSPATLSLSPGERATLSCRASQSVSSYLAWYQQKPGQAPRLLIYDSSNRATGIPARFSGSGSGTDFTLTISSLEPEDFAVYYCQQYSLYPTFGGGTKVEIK
notes: also called SRF538-A; SRF538-B
**Q.** For B5, which Kd (recombinant human IL-27 [3]) is on record?
**A.** ≤ 15 nM

**Q.** And the Kd (recombinant mouse IL-27)?
**A.** 182 nM

**Q.** What about the Kd (recombinant human IL-27 [2]) of the same binder?
**A.** 8.93 nM

B6: Ab7.6 (antibody, human IgG1, kappa, V domains shown)
VH: EVKLVESGGGLVQPGGSLRLSCAASGFTFTSYSMSWVRQAPGKGLEWVAYISYDGGSAYYPDTVKGRFTISRDNSKKTLYLQMSSLKSEDTAMYYCARHGDYDDDDAMDYWGQGTSVTVSS
VL: DIQMTQSPSSLSASVGDRVTITCRASENIYSYLAWYQQKPGKAPKLLVYNAETLTEGVPSRFSGSGSGTDFTLTISSLQPEDFATYYCQHHYGTPLTFGQGTKLEIKR
notes: human IgG1/kappa
**Q.** Does B6 bind (recombinant human IL-27 [4])?
**A.** binds

B7: Ab7.7 (antibody, human IgG1, kappa, V domains shown)
VH: B6 VH
VL: B6 VL with A34N
notes: human IgG1/kappa; also called Ab7-VL4 humanized variant
**Q.** Does B7 bind (recombinant human IL-27 [5])?
**A.** no binding (tested: 3.3 nM to 30 nM of antibody)

B8: Ab7.11 (antibody, human IgG1, kappa, V domains shown)
VH: B6 VH with K3Q, K77N, S116L
VL: B6 VL with A34N
notes: as for B7
**Q.** Does B8 bind (recombinant human IL-27 [5])?
**A.** no binding (tested: 3.3 nM to 30 nM of antibody)

B9: Ab7.15 (antibody, human IgG1, kappa, V domains shown)
VH: B6 VH with S84N, K87R, S88A, M93V, S116L
VL: B6 VL with A34N
notes: as for B7
**Q.** Does B9 bind (recombinant human IL-27 [5])?
**A.** no binding (tested: 3.3 nM to 30 nM of antibody)

B10: Ab7.19 (antibody, human IgG1, kappa, V domains shown)
VH: B6 VH with K3Q, K77N, S84N, K87R, S88A, M93V, S116L
VL: B6 VL with A34N
notes: as for B7
**Q.** Does B10 bind (recombinant human IL-27 [5])?
**A.** no binding (tested: 3.3 nM to 30 nM of antibody)

B11: Ab7.23 (antibody, human IgG1, kappa, V domains shown)
VH: B6 VH with K3Q, A49S, K77N, S84N, K87R, S88A, M93V, S116L
VL: B6 VL with A34N
notes: as for B7
**Q.** Does B11 bind (recombinant human IL-27 [5])?
**A.** no binding (tested: 3.3 nM to 30 nM of antibody)
